Laboratory results published in paper PMC6367345 (Scientific Reports, 2019).
Changes are numbered by the printed parent chain. Blank lines part the entries; values can stand above or below the molecule they belong to.

Tests used:
MEDI-579 Fab (human) = experiment: SPR; BIAcore T100; antibody (MEDI-579 Fab) amine-coupled to a CM3 sensorchip at about 500 RU; serial dilution of PAI-1 between 6.25 nM and 25 pM in HBS-EP+ passed over the surface
[1] = molecular target: human plasminogen activator inhibitor-1 (PAI-1), active (native) form (Homo sapiens, UniProt P05121, glycosylated (SPR preparation))
rat PAI-1 = molecular target: T1, rat PAI-1 (Rattus norvegicus, UniProt P20961); experiment: SPR; BIAcore T100; antibody (MEDI-579 Fab) amine-coupled to a CM3 sensorchip at about 500 RU; serial dilution of PAI-1 between 6.25 nM and 25 pM in HBS-EP+ passed over the surface; details: both partners purified
T1 construct: source: bought: Molecular Innovations (SPR)
T1 sequence (P20961 24-402): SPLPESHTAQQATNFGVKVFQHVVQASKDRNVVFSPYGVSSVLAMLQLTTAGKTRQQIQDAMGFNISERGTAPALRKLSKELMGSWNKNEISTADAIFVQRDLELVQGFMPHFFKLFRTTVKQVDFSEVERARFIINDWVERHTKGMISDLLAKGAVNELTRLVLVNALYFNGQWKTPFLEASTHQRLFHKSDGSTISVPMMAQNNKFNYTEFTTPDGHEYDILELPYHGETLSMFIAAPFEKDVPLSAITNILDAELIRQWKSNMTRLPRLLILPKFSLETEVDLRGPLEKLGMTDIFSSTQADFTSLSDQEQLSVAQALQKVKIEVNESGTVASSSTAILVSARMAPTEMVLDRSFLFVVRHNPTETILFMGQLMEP

Chain of MEDI-579 Fab (human) (light, as listed by the source): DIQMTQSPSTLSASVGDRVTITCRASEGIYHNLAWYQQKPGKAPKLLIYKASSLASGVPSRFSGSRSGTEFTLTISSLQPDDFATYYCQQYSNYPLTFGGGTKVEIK
Chain of human plasminogen activator inhibitor-1 (PAI-1), active (native) form (Homo sapiens, UniProt P05121, glycosylated (SPR preparation)) (P05121 24-402): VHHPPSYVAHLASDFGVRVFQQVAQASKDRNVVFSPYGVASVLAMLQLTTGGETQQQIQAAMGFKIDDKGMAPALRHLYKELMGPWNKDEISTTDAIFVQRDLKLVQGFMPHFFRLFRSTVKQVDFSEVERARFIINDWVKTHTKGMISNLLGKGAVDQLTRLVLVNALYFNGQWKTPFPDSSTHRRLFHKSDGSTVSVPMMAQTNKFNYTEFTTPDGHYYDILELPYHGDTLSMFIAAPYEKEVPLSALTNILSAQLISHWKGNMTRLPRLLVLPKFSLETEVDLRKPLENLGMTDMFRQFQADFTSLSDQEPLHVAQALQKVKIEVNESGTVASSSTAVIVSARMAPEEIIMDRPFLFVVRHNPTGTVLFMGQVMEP

Kd (MEDI-579 Fab (human)): 0.006 nM
koff (MEDI-579 Fab (human)): 4.18e-05 s⁻¹
kon (MEDI-579 Fab (human)): 7.02e+06 M⁻¹ s⁻¹
Molecule: human plasminogen activator inhibitor-1 (PAI-1), active (native) form (from UniProt P05121 24-402) (natural protein)

binding result [1]: binds
B1: Parent (antibody, V domains shown)
VH: QVQLQQSGAEVKKPGSSVKVSCKASGGTFSSYAISWVRQAPGQGLEWMGGIIPIFDTANYAQKFQGRVTITADESTSTAYMELSSLRSEDTAVYYCAREKRQWLEGHFDYWGRGTLVTVSS
VL: DIQMTQSPSFLSASIGDRVTITCRASEGIYHWLAWYQQKPGKAPKLLIYKASSLASGAPSRFSGSGSGTDFTLTISSLQPDDFATYYCQQYSNYPLTFGGGTKLEIK

Kd (rat PAI-1): 0.105 nM
koff (rat PAI-1): 0.000797 s⁻¹
kon (rat PAI-1): 7.64e+06 M⁻¹ s⁻¹
B2: MEDI-579 Fab (Fab, V domains shown)
VH: B1 VH with Q5V, I54T, D56G, K100R
VL: B1 VL with F10T, I15V, W32N, A58V, G66R, D70E, L104V
notes: heavy chain of the Fab; closest germline IGHV1-69*12; light chain of the Fab; closest germline IGKV1-5*03; The Fab for crystallisation was made by papain digestion of the IgG1
